The values below come from patent publication US11419945B2, “Antigen binding proteins” (Glaxo Group Limited, priority 2011, dated 2022).

One test deals with T1, Human in house BCMA (Homo sapiens, UniProt Q02223).
T1 construct: CD33 signal peptide (N); TEV site (internal); Fc (C); made in house
Briefly: ProteOn analysis of CA8 chimeric and humanised constructs, human in house BCMA. The format is binding. To be noted: for ka / kd: Run 1, Human in house BCMA, ProteOn, 25° C.; for ka: in M-1s-1 (unit assumed); for kd: in s-1 (unit assumed); for off rate: Run 2, ProteOn, recombinant human BCMA, no affinity values obtained. The procedure:
The initial screen of CA8 chimeric and humanised variants was carried out on the ProteOn XPR36 (Biorad). The method was as follows; Protein A was immobilised on a GLC chip (Biorad, Cat No: 176-5011) by primary amine coupling, CA8 variants were then captured on this surface and recombinant human BCMA (in house or commercial US Biological, B0410) materials (run 2 only)) passed over at 256, 64, 16, 4, 1 nM with a 0 nM injection (i.e. buffer alone) used to double reference the binding curves, the buffer used is the HBS-EP buffer. 50 mM NaOH was used to regenerate the capture surface. The data was fitted to the 1:1 model using the analysis software inherent to the ProteOn XPR36. Run 1 corresponds to the first screen of humanised CA8 variants (JO to J5 series) and run 2 to the second screen of humanised CA8 variants (J5 to J9 series). Both runs were carried out at 25° C.

In another test the test system is Cyno in house BCMA. Briefly: ProteOn analysis of CA8 chimeric and humanised constructs, cyno in house BCMA. The class given is binding. To be noted: Run 1, Cyno in house BCMA, 25° C.; for ka: in M-1s-1 (unit assumed); for kd: in s-1 (unit assumed).
Cyno in house BCMA, sequence (as listed by the source): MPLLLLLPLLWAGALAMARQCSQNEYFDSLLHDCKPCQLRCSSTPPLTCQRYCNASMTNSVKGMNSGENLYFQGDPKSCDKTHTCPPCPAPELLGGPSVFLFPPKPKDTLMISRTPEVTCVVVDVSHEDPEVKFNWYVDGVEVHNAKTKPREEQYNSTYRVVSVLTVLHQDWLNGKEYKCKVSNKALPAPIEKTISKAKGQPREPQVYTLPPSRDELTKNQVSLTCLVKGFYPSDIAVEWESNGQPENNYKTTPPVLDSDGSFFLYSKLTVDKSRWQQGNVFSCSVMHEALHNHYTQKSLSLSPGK

T1 sequence (Q02223 with tags, fused parts or gaps limits assumed): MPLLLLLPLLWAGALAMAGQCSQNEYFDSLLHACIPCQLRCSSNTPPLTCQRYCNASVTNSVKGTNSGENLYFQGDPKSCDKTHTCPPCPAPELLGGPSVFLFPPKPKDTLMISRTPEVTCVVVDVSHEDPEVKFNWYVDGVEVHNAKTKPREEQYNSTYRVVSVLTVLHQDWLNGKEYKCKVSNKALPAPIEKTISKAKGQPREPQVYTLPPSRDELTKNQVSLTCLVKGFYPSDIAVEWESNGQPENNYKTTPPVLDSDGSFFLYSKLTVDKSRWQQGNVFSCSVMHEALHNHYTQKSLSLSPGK

B1: CA8 humanised J5M2: humanised CA8 anti-BCMA antibody, VH J5 (SEQ ID NO:21) + VL M2 (SEQ ID NO:35) (antibody, V domains shown)
VH: QVQLVQSGAEVKKPGSSVKVSCKGSGYTFTNYWMHWVRQAPGQGLEWMGATYRGHSDTYYNQKFKGRVTITADTSTSTAYMELSSLRSEDTAVYYCTRGAIYDGYDVLDNWGQGTLVTVSS
VL: DIQLTQSPSSLSASVGDRVTITCSASQDISNYLNWYQQKPGKAPELVIYYTSNLHSGVPSRFSGSGSGTDYTLTISSLQPEDFATYYCQQYRKLPWTFGQGTKLEIKR
modifications: Humansed antibody sequence
B1: in the test with Human in house BCMA, the ka worked out at 2.67E+05, the kd was found to be 3.21E−05 and the off rate entry is reported as “beyond the sensitivity of the assay”. In the test with Cyno in house BCMA, this molecule yielded a ka of 4.30E+05 and a kd of 4.70E−05.

B2: CA8 humanised J4M1: humanised CA8 anti-BCMA antibody, VH J4 (SEQ ID NO:19) + VL M1 (SEQ ID NO:33) (antibody, V domains shown)
VH: QVQLVQSGAEVKKPGSSVKVSCKGSGYTFTNYWMHWVRQAPGQGLEWIGATYRGHSDTYYNQKFKGRATLTADTSTSTAYMELSSLRSEDTAVYYCTRGAIYNGYDVLDNWGQGTLVTVSS
VL: DIQMTQSPSSLSASVGDRVTITCSASQDISNYLNWYQQKPGKAPKLLIYYTSNLHSGVPSRFSGSGSGTDYTLTISSLQPEDFATYYCQQYRKLPWTFGQGTKLEIKR
modifications: Humansed antibody sequence
Consider B2, for which the results for the ka with Human in house BCMA and in the test with Cyno in house BCMA were 2.54E+05 and 3.50E+05, respectively. Besides, the kd in the test with Human in house BCMA was 7.04E−05; on Cyno in house BCMA it was 7.10E−05.

B3: CA8 humanised J3M1: humanised CA8 anti-BCMA antibody, VH J3 (SEQ ID NO:17) + VL M1 (SEQ ID NO:33) (antibody, V domains shown)
VH: QVQLVQSGAEVKKPGSSVKVSCKGSGYTFTNYWMHWVRQAPGQGLEWMGATYRGHSDTYYNQKFKGRVTITADTSTSTAYMELSSLRSEDTAVYYCTRGAIYNGYDVLDNWGQGTLVTVSS
VL: DIQMTQSPSSLSASVGDRVTITCSASQDISNYLNWYQQKPGKAPKLLIYYTSNLHSGVPSRFSGSGSGTDYTLTISSLQPEDFATYYCQQYRKLPWTFGQGTKLEIKR
modifications: Humansed antibody sequence
With B3, the ka is 2.85E+05 in the test with Human in house BCMA and 4.04E+05 in the test with Cyno in house BCMA. Also, the kd stood at 1.25E−04 with Human in house BCMA and 7.93E−05 at Cyno in house BCMA.

B4: CA8 humanised J2M1: humanised CA8 anti-BCMA antibody, VH J2 (SEQ ID NO:15) + VL M1 (SEQ ID NO:33) (antibody, V domains shown)
VH: QVQLVQSGAEVKKPGSSVKVSCKASGYTFTNYWMHWVRQAPGQGLEWMGATYRGHSDTYYNQKFKGRVTITADKSTSTAYMELSSLRSEDTAVYYCTRGAIYNGYDVLDNWGQGTLVTVSS
VL: DIQMTQSPSSLSASVGDRVTITCSASQDISNYLNWYQQKPGKAPKLLIYYTSNLHSGVPSRFSGSGSGTDYTLTISSLQPEDFATYYCQQYRKLPWTFGQGTKLEIKR
modifications: Humansed antibody sequence
In the test with Human in house BCMA, B4 yielded a ka of 2.04E+05 and a kd of 1.72E−04. Moreover, in the test on Cyno in house BCMA, the ka came to 2.96E+05 and the kd is listed as 6.46E−05.

B5: CA8 humanised J1M2: humanised CA8 anti-BCMA antibody, VH J1 (SEQ ID NO:13) + VL M2 (SEQ ID NO:35) (antibody, V domains shown)
VH: QVQLVQSGAEVKKPGSSVKVSCKASGYTFTNYWMHWVRQAPGQGLEWMGATYRGHSDTYYNQKFKGRVTITADKSTSTAYMELSSLRSEDTAVYYCARGAIYNGYDVLDNWGQGTLVTVSS
VL: DIQLTQSPSSLSASVGDRVTITCSASQDISNYLNWYQQKPGKAPELVIYYTSNLHSGVPSRFSGSGSGTDYTLTISSLQPEDFATYYCQQYRKLPWTFGQGTKLEIKR
modifications: Humansed antibody sequence
Take B5: in the test with Human in house BCMA, the ka came out at 2.15E+05 and the kd came to 2.46E−04. In the test on Cyno in house BCMA, this molecule returned a ka of 3.19E+05 and a kd of 9.67E−05.

B6: CA8 humanised J0M1: humanised CA8 anti-BCMA antibody, VH J0 (SEQ ID NO:11) + VL M1 (SEQ ID NO:33) (antibody, V domains shown)
VH: QVQLVQSGAEVKKPGSSVKVSCKASGGTFSNYWMHWVRQAPGQGLEWMGATYRGHSDTYYNQKFKGRVTITADKSTSTAYMELSSLRSEDTAVYYCARGAIYNGYDVLDNWGQGTLVTVSS
VL: DIQMTQSPSSLSASVGDRVTITCSASQDISNYLNWYQQKPGKAPKLLIYYTSNLHSGVPSRFSGSGSGTDYTLTISSLQPEDFATYYCQQYRKLPWTFGQGTKLEIKR
modifications: Humansed antibody sequence
In the test with Human in house BCMA, B6 yielded a ka of 2.31E+05 and a kd of 8.60E−05. In the test with Cyno in house BCMA, this molecule returned a ka of 3.32E+05 and a kd of 1.67E−04.

B7: CA8 humanised J0M2: humanised CA8 anti-BCMA antibody, VH J0 (SEQ ID NO:11) + VL M2 (SEQ ID NO:35) (antibody, V domains shown)
VH: QVQLVQSGAEVKKPGSSVKVSCKASGGTFSNYWMHWVRQAPGQGLEWMGATYRGHSDTYYNQKFKGRVTITADKSTSTAYMELSSLRSEDTAVYYCARGAIYNGYDVLDNWGQGTLVTVSS
VL: DIQLTQSPSSLSASVGDRVTITCSASQDISNYLNWYQQKPGKAPELVIYYTSNLHSGVPSRFSGSGSGTDYTLTISSLQPEDFATYYCQQYRKLPWTFGQGTKLEIKR
modifications: Humansed antibody sequence
Regarding B7, the results for the ka with Human in house BCMA and in the test on Cyno in house BCMA were 2.25E+05 and 3.26E+05, respectively. The values for the kd with Human in house BCMA and on Cyno in house BCMA were 6.97E−05 and 1.84E−04, respectively.

B8: CA8 humanised J4M2: humanised CA8 anti-BCMA antibody, VH J4 (SEQ ID NO:19) + VL M2 (SEQ ID NO:35) (antibody, V domains shown)
VH: QVQLVQSGAEVKKPGSSVKVSCKGSGYTFTNYWMHWVRQAPGQGLEWIGATYRGHSDTYYNQKFKGRATLTADTSTSTAYMELSSLRSEDTAVYYCTRGAIYNGYDVLDNWGQGTLVTVSS
VL: DIQLTQSPSSLSASVGDRVTITCSASQDISNYLNWYQQKPGKAPELVIYYTSNLHSGVPSRFSGSGSGTDYTLTISSLQPEDFATYYCQQYRKLPWTFGQGTKLEIKR
modifications: Humansed antibody sequence
Consider B8, for which, in the test with Human in house BCMA, the ka was determined as 2.51E+05 and the kd was 7.06E−05. In the test with Cyno in house BCMA, the ka came to 3.44E+05 and the kd was determined as 6.15E−05.

B9: CA8 humanised J3M2: humanised CA8 anti-BCMA antibody, VH J3 (SEQ ID NO:17) + VL M2 (SEQ ID NO:35) (antibody, V domains shown)
VH: QVQLVQSGAEVKKPGSSVKVSCKGSGYTFTNYWMHWVRQAPGQGLEWMGATYRGHSDTYYNQKFKGRVTITADTSTSTAYMELSSLRSEDTAVYYCTRGAIYNGYDVLDNWGQGTLVTVSS
VL: DIQLTQSPSSLSASVGDRVTITCSASQDISNYLNWYQQKPGKAPELVIYYTSNLHSGVPSRFSGSGSGTDYTLTISSLQPEDFATYYCQQYRKLPWTFGQGTKLEIKR
modifications: Humansed antibody sequence
Regarding B9, the results for the ka with Human in house BCMA and in the test with Cyno in house BCMA were 2.66E+05 and 3.69E+05, respectively. For the same molecule, the kd with Human in house BCMA came to 9.64E−05; at Cyno in house BCMA it was 5.87E−05.

B10: CA8 humanised J2M2: humanised CA8 anti-BCMA antibody, VH J2 (SEQ ID NO:15) + VL M2 (SEQ ID NO:35) (antibody, V domains shown)
VH: QVQLVQSGAEVKKPGSSVKVSCKASGYTFTNYWMHWVRQAPGQGLEWMGATYRGHSDTYYNQKFKGRVTITADKSTSTAYMELSSLRSEDTAVYYCTRGAIYNGYDVLDNWGQGTLVTVSS
VL: DIQLTQSPSSLSASVGDRVTITCSASQDISNYLNWYQQKPGKAPELVIYYTSNLHSGVPSRFSGSGSGTDYTLTISSLQPEDFATYYCQQYRKLPWTFGQGTKLEIKR
modifications: Humansed antibody sequence
For the molecule B10, the values for the ka with Human in house BCMA and in the test with Cyno in house BCMA were 2.05E+05 and 2.98E+05, respectively. In addition, the kd stood at 9.87E−05 with Human in house BCMA and 3.17E−05 at Cyno in house BCMA.

B11: CA8 humanised J5M1: humanised CA8 anti-BCMA antibody, VH J5 (SEQ ID NO:21) + VL M1 (SEQ ID NO:33) (antibody, V domains shown)
VH: QVQLVQSGAEVKKPGSSVKVSCKGSGYTFTNYWMHWVRQAPGQGLEWMGATYRGHSDTYYNQKFKGRVTITADTSTSTAYMELSSLRSEDTAVYYCTRGAIYDGYDVLDNWGQGTLVTVSS
VL: DIQMTQSPSSLSASVGDRVTITCSASQDISNYLNWYQQKPGKAPKLLIYYTSNLHSGVPSRFSGSGSGTDYTLTISSLQPEDFATYYCQQYRKLPWTFGQGTKLEIKR
modifications: Humansed antibody sequence
Take B11: in the test with Human in house BCMA, the ka was determined as 2.97E+05, the kd was 4.32E−05 and the off rate entry is “beyond the sensitivity of the assay”. In the test with Cyno in house BCMA, the ka came to 4.81E+05 and the kd is 5.41E−05.
